Laboratory results as given in the supplement of paper PMC9170038.

System: K4 kissing-loop RNA reporter
Experiment: apparent KD of K4 kissing-loop reporter; higher = weaker reporter binding
Conditions: Eterna round: R107; input ligand: arginine 13.2 mM
Procedure: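 RNA-MaP round R107: designed RNA switches with theophylline, tryptophan, arginine or FMN aptamers are transcribed on-chip within common flanks. They are titrated with a labelled K4 kissing-loop RNA reporter in RNA-MaP buffer (100 mM Tris pH 7.5, 80 mM KCl, 4 mM MgCl2), without ligand or with the indicated ligand. Median apparent KD per design.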
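Note: bound reporter read as fluorescence of individual clusters on recovered sequencing chips by microscopy, with normalized cluster intensities fitted with a binding model.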

Sequence | apparent KD of K4 kissing-loop reporter [nM]
GGGCCGCGCGCGGCCGCCACUCAGUGAUGUUGGGUGAGCUUUGCUGUGCGUGCUGUUUCGUGACGGAGGACCGGGCGCGCGGCCU [BDazzled 2] | 93.6
AUGCGCGCGGCGGCCGCCACUCGCAUGAGAGUGAUGUUCUCGCCGGGCCCGGAAGGGCCCGGUGUGAGGACCGGGCCGGGCUGCG [#2 Same State - Tryptophan B Attempt #17 (HarryS)] | 73.2
CAAUGAGUAUAAGAUGAUAUCAUCACAGAAGGAGCGAGUGAUAACUCAGGUAGGUCGCUGAAUUUAUCGAGUGAUGUUCGAUAGA [whbob_SS_Arginine_A_sa118] | 158
AGACUACUGAUAGGAUAUAACAUACUAGCUCGUAUACCAAAGGUAUACGAGCACCUUCUAGUGAUGUUAGAAGGGUCGGUAGUCA [Omei KL FMN B Exc B v3] | 104
GCGUGCAAGUCAUGAUGCCCUAUCAGGACUAAGGAUAUAGCGUGACCUAGAAGGUAGCUAGUGAUGUUGGCUGACAUGCUACUGC [theeternabot_exclusion_KL_FMN_A_49] | 227
ACACGCAACUAUAGACCAGUGAUGUUGGAACGAGGACCGGUACGGCCGCCACUCGAGCGGACGAUCUACGCCUCUUAUGCUAACG [theeternabot_exclusion_KL_Trp_A_15] | 481
AUUCGCUCCACUGAUACCAGUCAUCGAGCAAGAUGCUAAGCCAGUGAUGUUGGCAUGAAUGACCCUUGGCAGCAGUACACUAAGG [Theo B SS t7] | 106
UGGCGAGUGAUGUUCGUUGUUGUAGUGUGUCGAGGACCGGUACGGCCGCCACUCGAGUUGGUUGUUGUUGUUGCUGUUGUUGCUG [#03 K4 Tryptophan A Same State] | 158
CGGCGCGGCGCGGCCGCCACUGCGCCUGGGUGCUCGCCGAGUGAUGUUCGUCGGCGGUUGGGUGGCAGGACCGGGUGCCGGCCCG [BDazzled - #18 SS Tryptophan B] | 703
UGUUUUUUUUUGAUGUUUGUUGUAAAAUGGCAGGAUAUCGUAGAGGCGAGAAGGGCUUUUAUGCGUUAUGAGUGAUGUUUGUAGG [vevvmullin] | 252
AGGUCCGAGCCCGGAAGGGCUCGGACCUGUUAGGAUAUGACGUUAUUCAGAAGGGAUGGGUGGAGUGAUGUUCCACCCGAGAGGG [#2 Same State - FMN A Attempt #17 (HarryS)] | 103
AAGAAGGUCAAAGACCUUCGUGCACCUGAUACCAGUCGCGAAAGCGACCCUUGGCAGCAGGGCAGUGAUGUUGCCAAGUGCACAA [Omei KL Theo A SS A v1] | 650
AUUCUAUUGUGAAGGAGCGCGUAUAGUAGUGAUGUUACUAUAAUAAUAGAUAUUUAAUUCUCGCAGGUAGGUCGCACAAUAUAUA [JR_Nu_ExcArginiB_Sub025] | 82.6
AGGUCACAACUACAGUGAUGUUGUGGAGAGCAGGAUAUGCAGAAAUGCAGAAGGGCUCGCUCUCUAGUGACCGAUCAAAAGAUCA [Omei KL FMN A SS A v9] | 311
CCUAUCUCAUACGAUACCAGUCCGAGUGAUGUUCGAAAAUAAAUAAAUUUGCCAUAUAAUGACCCUUGGCAGCGUAUGGGAUAGG [Ex Theophylline B K4 11] | 296
CAGAAGCAUUCGGCCGCCACUCCAGUGAUGUUGGAGCGGGAGGGCCUUAAACCUCGAGGCUGCUGGAGGACCGGGAAUGUUGAGG [Beerso] | 164
GCCGUACGCAUGGAUACCAGAUGGCACUAUAAUCUACCAGAGUGAUGUUCUGGCCUGCCCAUCCCUUGGCAGCCAUGCGUACGGC | 199
UGUGUUUACCUGACUCAGUGAUGUUGAGAAGGAGCGUGCGAAGGCACAGGUAGGUCGCUCAACCUAAAUUCAGGUGAGCACUAAA | 168
CUCGAGUGAUGUUCGAUUAUGUAUACAGAUACCAGUGAAUUUUAACACCCUUGGCAGCUGGUAGAAUCUUUGUAAUUUUAACUAG [JR_ExcTheophyA_Sub002] | 253
UUGUUUGGUUGAGAGGUUGGGCGAGAUGAUACCAGUAGAGAAGAGUACCCUUGGCAGCAUAAGAAAGAUAUAGUGAUGUUGUAUA [SSTheophA.P] | 362
GGAGUGAUGUUCCAUUUUUAAAUCUCCGAUACCAGUAUGGAAACAUACCCUUGGCAGCGGUAAACCGCAGAUUAGGAAACUAGUC [Theophylline A K4 1] | 682
AAAUAGAUCAGUCAACCAGUGAUGUUGGAAGGAGCGUGCGAAAGCACAGGUAGGUCGCCAGAAUAAAAGUGGCUGAUCAAAAUAA | 384
UGAUACCAGACGGCCGCCACUCCCGCAGGUCAAAGACCUGCGAAGAAGGUUCUUUAGUGAUGUUGGAGGACCGGGUCUGGUAUCU [FiskerMod 21 - Jieux - Exclusion - Tryptophan B] | 312
AAGCCAGAGAUUGCUGCGGGUUCCAGAGAUACCAGCCGUAUUGAAGGCCCUUGGCAGCUCGAGUGAUGUUCGAGCCGUCUCCGGC [Onte] | 110
AAAAUAAGCCAGUGAUGUUGGUACCCAGAUACCAGCGACGAAAGUCGCCCUUGGCAGCUGUGGACGUACAAAAUAAGUACGUCCU | 209
AGGUAGUCCCUUGUUGUCAUCGAAGAUGAACGAGGACCGGUACGGCCGCCACUCGGAGUGAUGUUCCGAUGGCUGCAAAAUAAAA [MatMod 23 - Jieux - Exclusion - Tryptophan A] | 89
AAUAAAAUCACGGCCGCCACUGAUUUUUUUAUUAGGAGUGAUGUUCCUAUGACUAUAUUAUUUAACAGGACCGGGUGAAUAUUUA [JR_SSTryptoB_Sub023] | 97.5
